B6: INTS3CTD (C-terminal domain of INTS3, residues 572-978) (other)
chain: DQLDESLRDKVLQLQKGSDTEAQCEVMQEIVDQVLEEDFDSEQLSVLASCLQELFKAHFRGEVLPEEITEESLEESVGKPLYLIFRNLCQMQEDNSSFSLLLDLLSELYQKQPKIGYHLLYYLRASKAAAGKMNLYESFAQATQLGDLHTCLMMDMKACQEDDVRLLCHLTPSIYTEFPDETLRSGELLNMIVAVIDSAQLQELVCHVMMGNLVMFRKDSVLNILIQSLDWETFEQYCAWQLFLAHNIPLETIIPILQHLKYKEHPEALSCLLLQLRREKPSEEMVKMVLSRPCHPDDQFTTSILRHWCMKHDELLAEHIKSLLIKNNSLPRKRQSLRSSSSKLAQLTLEQILEHLDNLRLNLTNTKQNFFSQTPILQALQHVQASCDEAHKMKFSDLFSLAEEYED
notes: also called INTS3CTD dimer

How the values were obtained:
[1] = biological target: T1, His-INTS3-Strep (human, UniProt Q68E01 2-1043); experiment: co-IP in transfected HEK-293T cells (FIG. 6C)
T1 construct: also called INTS3 (co-IP construct)
Description: (§1) After 48 hours, cells were lysed in IP buffer containing 50 mM Tris-HCl pH 7.5, 150 mM NaCl, 0.1% Triton-X100, 1 mM EDTA and 1×Roche protease inhibitor. The supernatants were incubated overnight with mouse anti-His monoclonal antibody (Proteintech #66005-1-Ig), or rabbit anti-FLAG polyclonal antibody (Proteintech #20543-1-AP).
(§2) Then, protein A/G agarose beads (Millipore, #[…]02) were added and rotated for 2 more hours. The immunoprecipitated complexes were subjected to SDS-PAGE, followed by Western blot and/or MS analyses.

[2] = biological target: T1, His-INTS3-Strep; experiment: co-IP
Description: as §1, §2

[3] = biological target: B6; experiment: ITC (MicroCal iTC200, 16 °C, single-site model, two independent experiments)
Description: The equilibrium dissociation constant of the SAGE1I3BD-INTS3CTD interaction was determined using a MicroCal iTC200 calorimeter (Malvern). The binding enthalpy was measured at 16° C. in 25 mM Tris-HCl pH 8.0, 150 mM NaCl and 5 mM MgCl2. Two independent experiments were performed. ITC data were subsequently analyzed and fitted using Origin 7 software (OriginLab).
All statistical tests of experimental results were performed using the GraphPad Prism 7 unless noted. The statistical significance was calculated via unpaired two-tailed Student's t test. The dissociation constants (Kd) in ITC experiments were calculated using the Origin 7 software as mean±standard error from two independent experiments with a single site-specific binding model. The statistical analysis of in vivo experiments data was performed using nonparametric Mann-Whitney test. Results were represented as mean±standard deviation unless noted and p<0.05 was considered statistically significant.

[4] = biological target: B6; experiment: purification of the complex, size-exclusion chromatography (FIG. 8B)
[5] = biological target: the molecule itself; experiment: homodimerisation of two INTS3CTD protomers; crystal structure (2.3 Å) and calibrated size-exclusion chromatography

T1 sequence (Q68E01 2-1043): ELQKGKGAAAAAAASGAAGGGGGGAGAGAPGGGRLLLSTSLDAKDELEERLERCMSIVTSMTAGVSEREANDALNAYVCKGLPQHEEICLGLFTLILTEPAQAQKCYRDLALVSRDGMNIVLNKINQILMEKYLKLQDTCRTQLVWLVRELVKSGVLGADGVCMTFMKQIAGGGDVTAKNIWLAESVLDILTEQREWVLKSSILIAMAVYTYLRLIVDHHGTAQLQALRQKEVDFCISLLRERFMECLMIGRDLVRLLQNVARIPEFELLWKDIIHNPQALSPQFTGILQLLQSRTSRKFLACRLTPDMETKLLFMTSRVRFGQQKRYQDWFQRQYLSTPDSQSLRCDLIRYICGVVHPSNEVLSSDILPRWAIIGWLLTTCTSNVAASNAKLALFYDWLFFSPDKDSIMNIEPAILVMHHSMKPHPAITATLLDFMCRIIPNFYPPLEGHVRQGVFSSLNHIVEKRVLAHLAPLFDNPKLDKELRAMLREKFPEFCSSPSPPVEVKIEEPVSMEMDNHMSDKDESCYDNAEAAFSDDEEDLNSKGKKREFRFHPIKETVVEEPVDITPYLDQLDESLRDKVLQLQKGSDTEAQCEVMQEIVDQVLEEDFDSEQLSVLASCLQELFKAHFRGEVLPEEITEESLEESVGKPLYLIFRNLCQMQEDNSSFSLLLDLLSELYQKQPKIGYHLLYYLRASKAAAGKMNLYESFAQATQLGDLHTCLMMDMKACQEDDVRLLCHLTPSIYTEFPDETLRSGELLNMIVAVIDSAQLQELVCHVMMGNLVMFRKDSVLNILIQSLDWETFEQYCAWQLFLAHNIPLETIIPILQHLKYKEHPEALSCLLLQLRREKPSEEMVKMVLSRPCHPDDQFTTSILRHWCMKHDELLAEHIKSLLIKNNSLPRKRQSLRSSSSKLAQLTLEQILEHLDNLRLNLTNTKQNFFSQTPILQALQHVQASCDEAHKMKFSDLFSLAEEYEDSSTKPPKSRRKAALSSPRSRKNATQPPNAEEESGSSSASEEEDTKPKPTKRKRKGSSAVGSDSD

B1: His-SAGE1-Flag (WT SAGE1) (other, not shown: small tags and cut ends)
chain: MQASPLQTSQPTPPEELHAAAYVFTNDGQQMRSDEVNLVATGHQSKKKHSRKSKRHSSSKRRKSMSSWLDKQEDAAVTHSICEERINNGQPVADNVLSTAPPWPDATIAHNIREERMENGQSRTDKVLSTAPPQLVHMAAAGIPSMSTRDLHSTVTHNIREERMENGQPQPDNVLSTGPTGLINMAATPIPAMSARDLYATVTHNVCEQKMENVQPAPDNVLLTLRPRRINMTDTGISPMSTRDPYATITYNVPEEKMEKGQPQPDNILSTASTGLINVAGAGTPAISTNGLYSTVPHNVCEEKMENDQPQPNNVLSTVQPVIIYLTATGIPGMNTRDQYATITHNVCEERVVNNQPLPSNALSTVLPGLAYLATADMPAMSTRDQHATIIHNLREEKKDNSQPTPDNVLSAVTPELINLAGAGIPPMSTRDQYATVNHHVHEARMENGQRKQDNVLSNVLSGLINMAGASIPAMSSRDLYATITHSVREEKMESGKPQTDKVISNDAPQLGHMAAGGIPSMSTKDLYATVTQNVHEERMENNQPQPSYDLSTVLPGLTYLTVAGIPAMSTRDQYATVTHNVHEEKIKNGQAASDNVFSTVPPAFINMAATGVSSMSTRDQYAAVTHNIREEKINNSQPAPGNILSTAPPWLRHMAAAGISSTITRDLYVTATHSVHEEKMTNGQQAPDNSLSTVPPGCINLSGAGISCRSTRDLYATVIHDIQEEEMENDQTPPDGFLSNSDSPELINMTGHCMPPNALDSFSHDFTSLSKDELLYKPDSNEFAVGTKNYSVSAGDPPVTVMSLVETVPNTPQISPAMAKKINDDIKYQLMKEVRRFGQNYERIFILLEEVQGSMKVKRQFVEFTIKEAARFKKVVLIQQLEKALKEIDSHCHLRKVKHMRKR
notes: also called wild type SAGE1
Question: Does B1 bind [1]?
Answer: binds

B2: SAGE1mut (R872A, F873A, K874A, M832A, F838A and Q840A) (other, not shown: small tags and cut ends)
chain: MQASPLQTSQPTPPEELHAAAYVFTNDGQQMRSDEVNLVATGHQSKKKHSRKSKRHSSSKRRKSMSSWLDKQEDAAVTHSICEERINNGQPVADNVLSTAPPWPDATIAHNIREERMENGQSRTDKVLSTAPPQLVHMAAAGIPSMSTRDLHSTVTHNIREERMENGQPQPDNVLSTGPTGLINMAATPIPAMSARDLYATVTHNVCEQKMENVQPAPDNVLLTLRPRRINMTDTGISPMSTRDPYATITYNVPEEKMEKGQPQPDNILSTASTGLINVAGAGTPAISTNGLYSTVPHNVCEEKMENDQPQPNNVLSTVQPVIIYLTATGIPGMNTRDQYATITHNVCEERVVNNQPLPSNALSTVLPGLAYLATADMPAMSTRDQHATIIHNLREEKKDNSQPTPDNVLSAVTPELINLAGAGIPPMSTRDQYATVNHHVHEARMENGQRKQDNVLSNVLSGLINMAGASIPAMSSRDLYATITHSVREEKMESGKPQTDKVISNDAPQLGHMAAGGIPSMSTKDLYATVTQNVHEERMENNQPQPSYDLSTVLPGLTYLTVAGIPAMSTRDQYATVTHNVHEEKIKNGQAASDNVFSTVPPAFINMAATGVSSMSTRDQYAAVTHNIREEKINNSQPAPGNILSTAPPWLRHMAAAGISSTITRDLYVTATHSVHEEKMTNGQQAPDNSLSTVPPGCINLSGAGISCRSTRDLYATVIHDIQEEEMENDQTPPDGFLSNSDSPELINMTGHCMPPNALDSFSHDFTSLSKDELLYKPDSNEFAVGTKNYSVSAGDPPVTVMSLVETVPNTPQISPAMAKKINDDIKYQLAKEVRRAGANYERIFILLEEVQGSMKVKRQFVEFTIKEAAAAAKVVLIQQLEKALKEIDSHCHLRKVKHMRKR
notes: Derived from the WT SAGE1 plasmid by site-directed mutagenesis; also called mutant SAGE1; Mutant SAGE1
Question: Does B2 bind [2]?
Answer: no binding

B3: SAGE1I3BD (INTS3-binding domain of SAGE1, residues 818-904) (other)
chain: AMAKKINDDIKYQLMKEVRRFGQNYERIFILLEEVQGSMKVKRQFVEFTIKEAARFKKVVLIQQLEKALKEIDSHCHLRKVKHMRKR
notes: Expressed in E. coli with a His-SUMO or GST tag; also called SAGE1818-904; small C-terminal region of SAGE1
Question: How did the Kd [3] turn out when B3 was run?
Answer: ~39 nM

B4: INTS6I3BD (INTS3-binding domain of INTS6, residues 803-887) (other)
chain: RSHEEVNTELKAQIMKEIRKPGRKYERIFTLLKHVQGSLQTRLIFLQNVIKEASRFKKRMLIEQLENFLDEIHRRANQINHINSN
notes: It was cloned in pGEX-6P-1 and purified as the INTS3CTD-INTS6I3BD complex; also called INTS6803-887; small domain at the C-terminus of INTS6
Question: Does B4 bind [4]?
Answer: binds

B5: SAGE1ΔI3BD (deletion mutant of SAGE1 lacking the I3BD domain) (other)
chain: MQASPLQTSQPTPPEELHAAAYVFTNDGQQMRSDEVNLVATGHQSKKKHSRKSKRHSSSKRRKSMSSWLDKQEDAAVTHSICEERINNGQPVADNVLSTAPPWPDATIAHNIREERMENGQSRTDKVLSTAPPQLVHMAAAGIPSMSTRDLHSTVTHNIREERMENGQPQPDNVLSTGPTGLINMAATPIPAMSARDLYATVTHNVCEQKMENVQPAPDNVLLTLRPRRINMTDTGISPMSTRDPYATITYNVPEEKMEKGQPQPDNILSTASTGLINVAGAGTPAISTNGLYSTVPHNVCEEKMENDQPQPNNVLSTVQPVIIYLTATGIPGMNTRDQYATITHNVCEERVVNNQPLPSNALSTVLPGLAYLATADMPAMSTRDQHATIIHNLREEKKDNSQPTPDNVLSAVTPELINLAGAGIPPMSTRDQYATVNHHVHEARMENGQRKQDNVLSNVLSGLINMAGASIPAMSSRDLYATITHSVREEKMESGKPQTDKVISNDAPQLGHMAAGGIPSMSTKDLYATVTQNVHEERMENNQPQPSYDLSTVLPGLTYLTVAGIPAMSTRDQYATVTHNVHEEKIKNGQAASDNVFSTVPPAFINMAATGVSSMSTRDQYAAVTHNIREEKINNSQPAPGNILSTAPPWLRHMAAAGISSTITRDLYVTATHSVHEEKMTNGQQAPDNSLSTVPPGCINLSGAGISCRSTRDLYATVIHDIQEEEMENDQTPPDGFLSNSDSPELINMTGHCMPPNALDSFSHDFTSLSKDELLYKPDSNEFAVGTKNYSVSAGDPPVTVMSLVETVPNTPQISP
notes: also called SAGE1DI3BD
Question: Does B5 bind [2]?
Answer: no binding

Question: Does B6 bind [5]?
Answer: binds

Source: patent US20230031980A1 (SHANGHAI NINTH PEOPLE S HOSPITAL SHANGHAI JIAO TONG …, published 2023)
